Laboratory results published in patent US20250084173A1 (4B TECHNOLOGIES SUZHOU, published 2025).

Experiments:
[1] = target: T1, recombinant mouse TrkA ECD protein (mouse, UniProt Q3UFB7 34-420); test: ELISA on recombinant TrkA ECD proteins (FIG. 1b)
T1 construct: extracellular domain; also called mTrkA-ECD-hFc; murine TrkA; not shown: C-terminal human Fc tag (hFc)

[2] = target: T2, recombinant human TrkA ECD protein (human, UniProt P04629 33-423); test: ELISA on recombinant TrkA ECD proteins (FIG. 1b)
T2 construct: extracellular domain; also called hTrkA-ECD-hFc; hTrkA; not shown: C-terminal human Fc tag (hFc)
T2 sequence (P04629 33-423): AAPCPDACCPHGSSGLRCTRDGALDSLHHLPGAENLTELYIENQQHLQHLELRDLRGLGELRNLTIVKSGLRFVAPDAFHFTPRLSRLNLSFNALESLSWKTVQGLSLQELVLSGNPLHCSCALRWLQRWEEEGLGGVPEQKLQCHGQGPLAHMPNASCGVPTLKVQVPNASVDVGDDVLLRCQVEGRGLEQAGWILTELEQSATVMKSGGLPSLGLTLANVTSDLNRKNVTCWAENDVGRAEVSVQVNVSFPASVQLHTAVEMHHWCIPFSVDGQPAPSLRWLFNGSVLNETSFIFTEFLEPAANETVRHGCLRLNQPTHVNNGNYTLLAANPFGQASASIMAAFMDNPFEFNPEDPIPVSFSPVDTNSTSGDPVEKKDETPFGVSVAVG

T1 sequence (Q3UFB7 34-420): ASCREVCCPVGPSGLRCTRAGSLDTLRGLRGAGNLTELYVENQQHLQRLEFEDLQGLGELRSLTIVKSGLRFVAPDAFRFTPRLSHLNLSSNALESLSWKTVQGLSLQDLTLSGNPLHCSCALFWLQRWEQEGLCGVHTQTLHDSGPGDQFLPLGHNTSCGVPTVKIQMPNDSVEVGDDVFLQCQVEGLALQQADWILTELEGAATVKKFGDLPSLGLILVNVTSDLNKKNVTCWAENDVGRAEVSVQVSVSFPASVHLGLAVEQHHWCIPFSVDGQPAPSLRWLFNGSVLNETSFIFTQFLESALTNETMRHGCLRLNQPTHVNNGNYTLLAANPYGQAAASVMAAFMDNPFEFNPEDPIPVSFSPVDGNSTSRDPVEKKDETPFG

B1: 27A6 (antibody, mouse IgG1, V domains shown)
VH: QVQLQQSGAELMEPGASVKISCKATGYTFSRYWIEWVQQRPGHGLEWIGEILPGSGTTNYNENFRGKATFTADTSSNTVYMQLISLTSEDSAVYYCARSYYGDFDAYWGQGTLVTVSA
VL: QAVVTQESALTTSPGETVTLTCRSSIGAVTTSNHANWVQEKPDHLFTGLIGGTNNRAPGVPARFSGSLIGDKAVLTITGAQTEDEAIYFCALWYSNHWVFGGGTKLTVLG
notes: also called TrkA antibody; TrkA antibody of the present application
binding result [1]: binds | binding result [2]: binds
